The assay deals with SARS-CoV-2 Spike protein (Wuhan-1 isolate) on VSV pseudovirus particles (SARS-CoV-2) (UniProt P0DTC2). The assay can be described thus: cell-based or functional assay.

For the substance “REGN10987 (benchmark, human IgG1) (antibody)”, the IC50 in pseudovirus assays was determined as 0.45 µg/mL.

Take “REGN10933 (benchmark, human IgG1) (antibody)”: the IC50 in pseudovirus assays is 0.67 µg/mL.

Values taken from patent US20220251174A1.
